# Measured values as given in patent US20190324040A1.
# B1: CC17 mAb (P1F12) (antibody, V domains shown)
# VH: QVQLVQSGGGLVQPGGSLRLSCAASGFTFSSYWMSWVRQAPGKGLEWVANIKQDGSEKYYVDSVKGRFTISRDNAKNSLYLQMNSLRAEDTAVYYCAGNGWDDSSGYYYRNYYYGMDVWGQGTTVTVSS
# VL: DIQMTQSPSSFSASTGDRVTITCRASQGISSYLAWYQQKPGKAPKLLIYAASTLQSGVPSRFSGSGSGTDFTLTISCLQSEDFATYYCQQYYSYPRTFGGGTKVDIK
# What was measured:
# [1] = molecular target: Zika virus (ZIKV), whole virus particles (Zika virus); assay: P1F12-ZIKV binding inhibition ELISA (4G2-captured ZIKV); competitor: 1/10 plasma of donor FA2004 (YF vaccine)
# [2] = molecular target: Zika virus (ZIKV), whole virus particles (Zika virus); assay: P1F12-ZIKV binding inhibition ELISA (4G2-captured ZIKV); competitor: 1/10 plasma of donor Class 6 (U.S. naive)
# [3] = molecular target: Zika virus (ZIKV), whole virus particles (Zika virus); assay: P1F12-ZIKV binding inhibition ELISA (4G2-captured ZIKV); competitor: 1/10 plasma of donor 138 (DENV+)
# [4] = molecular target: Zika virus (ZIKV), whole virus particles (Zika virus); assay: P1F12-ZIKV binding inhibition ELISA (4G2-captured ZIKV); competitor: 1/10 plasma of donor FA7006 (YF vaccine)
# [5] = molecular target: Zika virus (ZIKV), whole virus particles (Zika virus); assay: P1F12-ZIKV binding inhibition ELISA (4G2-captured ZIKV); competitor: 1/10 plasma of donor Class 2 (U.S. naive)
# [6] = molecular target: Zika virus (ZIKV), whole virus particles (Zika virus); assay: P1F12-ZIKV binding inhibition ELISA (4G2-captured ZIKV); competitor: 1/10 plasma of donor Class 13 (U.S. naive)
# [7] = molecular target: Zika virus (ZIKV), whole virus particles (Zika virus); assay: P1F12-ZIKV binding inhibition ELISA (4G2-captured ZIKV); competitor: 1/10 plasma of donor FA2005 (YF vaccine)
# [8] = molecular target: Zika virus (ZIKV), whole virus particles (Zika virus); assay: P1F12-ZIKV binding inhibition ELISA (4G2-captured ZIKV); competitor: 1/10 plasma of donor 184 (DENV+)
# [9] = molecular target: Zika virus (ZIKV), whole virus particles (Zika virus); assay: P1F12-ZIKV binding inhibition ELISA (4G2-captured ZIKV); competitor: 1/10 plasma of donor 3002 (ZIKV+)
# [10] = molecular target: Zika virus (ZIKV), whole virus particles (Zika virus); assay: P1F12-ZIKV binding inhibition ELISA (4G2-captured ZIKV); competitor: 1/10 plasma of donor 1235 (DENV+)
# [11] = molecular target: Zika virus (ZIKV), whole virus particles (Zika virus); assay: P1F12-ZIKV binding inhibition ELISA (4G2-captured ZIKV); competitor: 1/10 plasma of donor 515 (naive)
# [12] = molecular target: Zika virus (ZIKV), whole virus particles (Zika virus); assay: P1F12-ZIKV binding inhibition ELISA (4G2-captured ZIKV); competitor: 1/10 plasma of donor 3012 (ZIKV+)
# [13] = molecular target: Zika virus (ZIKV), whole virus particles (Zika virus); assay: P1F12-ZIKV binding inhibition ELISA (4G2-captured ZIKV); competitor: 1/10 plasma of donor 1252 (DENV+)
# [14] = molecular target: Zika virus (ZIKV), whole virus particles (Zika virus); assay: P1F12-ZIKV binding inhibition ELISA (4G2-captured ZIKV); competitor: 1/10 plasma of donor 1302 (ZIKV+)
# [15] = molecular target: Zika virus (ZIKV), whole virus particles (Zika virus); assay: P1F12-ZIKV binding inhibition ELISA (4G2-captured ZIKV); competitor: 1/10 plasma of donor Class 11 (U.S. naive)
# [16] = molecular target: Zika virus (ZIKV), whole virus particles (Zika virus); assay: P1F12-ZIKV binding inhibition ELISA (4G2-captured ZIKV); competitor: 1/10 plasma of donor 802 (ZIKV+)
# [17] = molecular target: Zika virus (ZIKV), whole virus particles (Zika virus); assay: P1F12-ZIKV binding inhibition ELISA (4G2-captured ZIKV); competitor: 1/10 plasma of donor Class 4 (U.S. naive)
# [18] = molecular target: Zika virus (ZIKV), whole virus particles (Zika virus); assay: P1F12-ZIKV binding inhibition ELISA (4G2-captured ZIKV); competitor: 1/10 plasma of donor 3004 (ZIKV+)
# [19] = molecular target: Zika virus (ZIKV), whole virus particles (Zika virus); assay: P1F12-ZIKV binding inhibition ELISA (4G2-captured ZIKV); competitor: 1/10 plasma of donor 1248 (DENV+)
# [20] = molecular target: Zika virus (ZIKV), whole virus particles (Zika virus); assay: P1F12-ZIKV binding inhibition ELISA (4G2-captured ZIKV); competitor: 1/10 plasma of donor 177 (DENV+)
# [21] = molecular target: Zika virus (ZIKV), whole virus particles (Zika virus); assay: P1F12-ZIKV binding inhibition ELISA (4G2-captured ZIKV); competitor: 1/10 plasma of donor Class 14 (U.S. naive)
# [22] = molecular target: Zika virus (ZIKV), whole virus particles (Zika virus); assay: P1F12-ZIKV binding inhibition ELISA (4G2-captured ZIKV); competitor: 1/10 plasma of donor 168 (DENV+)
# [23] = molecular target: Zika virus (ZIKV), whole virus particles (Zika virus); assay: P1F12-ZIKV binding inhibition ELISA (4G2-captured ZIKV); competitor: 1/10 plasma of donor Class 10 (U.S. naive)
# [24] = molecular target: Zika virus (ZIKV), whole virus particles (Zika virus); assay: P1F12-ZIKV binding inhibition ELISA (4G2-captured ZIKV); competitor: 1/10 plasma of donor Class 1 (U.S. naive)
# [25] = molecular target: Zika virus (ZIKV), whole virus particles (Zika virus); assay: P1F12-ZIKV binding inhibition ELISA (4G2-captured ZIKV); competitor: 1/10 plasma of donor 507 (DENV+)
# [26] = molecular target: Zika virus (ZIKV), whole virus particles (Zika virus); assay: P1F12-ZIKV binding inhibition ELISA (4G2-captured ZIKV); competitor: 1/10 plasma of donor 1208 (DENV+)
# [27] = molecular target: Zika virus (ZIKV), whole virus particles (Zika virus); assay: P1F12-ZIKV binding inhibition ELISA (4G2-captured ZIKV); competitor: 1/10 plasma of donor 152 (DENV+)
# [28] = molecular target: Zika virus (ZIKV), whole virus particles (Zika virus); assay: P1F12-ZIKV binding inhibition ELISA (4G2-captured ZIKV); competitor: 1/10 plasma of donor 3018 (ZIKV+)
# [29] = molecular target: Zika virus (ZIKV), whole virus particles (Zika virus); assay: P1F12-ZIKV binding inhibition ELISA (4G2-captured ZIKV); competitor: 1/10 plasma of donor 533 (ZIKV+)
# [30] = molecular target: Zika virus (ZIKV), whole virus particles (Zika virus); assay: P1F12-ZIKV binding inhibition ELISA (4G2-captured ZIKV); competitor: 1/10 plasma of donor FA2002 (YF vaccine)
# [31] = molecular target: Zika virus (ZIKV), whole virus particles (Zika virus); assay: P1F12-ZIKV binding inhibition ELISA (4G2-captured ZIKV); competitor: 1/10 plasma of donor 1255 (naive)
# [32] = molecular target: Zika virus (ZIKV), whole virus particles (Zika virus); assay: P1F12-ZIKV binding inhibition ELISA (4G2-captured ZIKV); competitor: 1/10 plasma of donor 3013 (ZIKV+)
# [33] = molecular target: Zika virus (ZIKV), whole virus particles (Zika virus); assay: P1F12-ZIKV binding inhibition ELISA (4G2-captured ZIKV); competitor: 1/10 plasma of donor Class 12 (U.S. naive)
# [34] = molecular target: Zika virus (ZIKV), whole virus particles (Zika virus); assay: P1F12-ZIKV binding inhibition ELISA (4G2-captured ZIKV); competitor: 1/10 plasma of donor 1273 (naive)
# [35] = molecular target: Zika virus (ZIKV), whole virus particles (Zika virus); assay: P1F12-ZIKV binding inhibition ELISA (4G2-captured ZIKV); competitor: 1/10 plasma of donor 12 (naive)
# [36] = molecular target: Zika virus (ZIKV), whole virus particles (Zika virus); assay: P1F12-ZIKV binding inhibition ELISA (4G2-captured ZIKV); competitor: 1/10 plasma of donor hu002 (U.S. naive)
# [37] = molecular target: Zika virus (ZIKV), whole virus particles (Zika virus); assay: P1F12-ZIKV binding inhibition ELISA (4G2-captured ZIKV); competitor: 1/10 plasma of donor Class 7 (U.S. naive)
# [38] = molecular target: Zika virus (ZIKV), whole virus particles (Zika virus); assay: virus capture ELISA
# [39] = molecular target: Zika virus (ZIKV), whole virus particles (Zika virus); assay: P1F12-ZIKV binding inhibition ELISA (4G2-captured ZIKV); competitor: 1/10 plasma of donor Class 9 (U.S. naive)
# [40] = molecular target: Zika virus (ZIKV), whole virus particles (Zika virus); assay: P1F12-ZIKV binding inhibition ELISA (4G2-captured ZIKV); competitor: 1/10 plasma of donor Class 8 (U.S. naive)
# [41] = molecular target: Zika virus (ZIKV), whole virus particles (Zika virus); assay: P1F12-ZIKV binding inhibition ELISA (4G2-captured ZIKV); competitor: 1/10 plasma of donor hu004 (ZIKV+)
# [42] = molecular target: Zika virus (ZIKV), whole virus particles (Zika virus); assay: P1F12-ZIKV binding inhibition ELISA (4G2-captured ZIKV); competitor: 1/10 plasma of donor Class 5 (U.S. naive)
# [43] = molecular target: Zika virus (ZIKV), whole virus particles (Zika virus); assay: cell-based or functional assay
# [44] = molecular target: Zika virus (ZIKV), whole virus particles (Zika virus); assay: P1F12-ZIKV binding inhibition ELISA (4G2-captured ZIKV); competitor: 1/10 plasma of donor 1280 (DENV+)
# [45] = molecular target: Zika virus (ZIKV), whole virus particles (Zika virus); assay: P1F12-ZIKV binding inhibition ELISA (4G2-captured ZIKV); competitor: 1/10 plasma of donor 1261 (naive)
# [46] = molecular target: Zika virus (ZIKV), whole virus particles (Zika virus); assay: P1F12-ZIKV binding inhibition ELISA (4G2-captured ZIKV); competitor: 1/10 plasma of donor Class 3 (U.S. naive)
# [47] = molecular target: Zika virus (ZIKV), whole virus particles (Zika virus); assay: P1F12-ZIKV binding inhibition ELISA (4G2-captured ZIKV); competitor: 1/10 plasma of donor 801 (ZIKV+)
# [48] = molecular target: Zika virus (ZIKV), whole virus particles (Zika virus); assay: P1F12-ZIKV binding inhibition ELISA (4G2-captured ZIKV); competitor: 1/10 plasma of donor 1294 (DENV+)
binder,measurement,setting,value
B1,P1F12-ZIKV inhibition assay (Abs450),[1],0.393 Abs450
same,P1F12-ZIKV inhibition assay (Abs450),[2],0.292 Abs450
same,P1F12-ZIKV inhibition assay (Abs450),[3],0.34 Abs450
same,P1F12-ZIKV inhibition assay (Abs450),[4],0.396 Abs450
same,P1F12-ZIKV inhibition assay (Abs450),[5],0.312 Abs450
same,P1F12-ZIKV inhibition assay (Abs450),[6],0.276 Abs450
same,P1F12-ZIKV inhibition assay (Abs450),[7],0.332 Abs450
same,P1F12-ZIKV inhibition assay (Abs450),[8],0.26 Abs450
same,P1F12-ZIKV inhibition assay (Abs450),[9],0.04 Abs450
same,P1F12-ZIKV inhibition assay (Abs450),[10],0.18 Abs450
same,P1F12-ZIKV inhibition assay (Abs450),[11],0.293 Abs450
same,P1F12-ZIKV inhibition assay (Abs450),[12],0.05 Abs450
same,P1F12-ZIKV inhibition assay (Abs450),[13],0.19 Abs450
same,P1F12-ZIKV inhibition assay (Abs450),[14],0.62 Abs450
same,P1F12-ZIKV inhibition assay (Abs450),[15],0.395 Abs450
same,P1F12-ZIKV inhibition assay (Abs450),[16],0.05 Abs450
same,P1F12-ZIKV inhibition assay (Abs450),[17],0.392 Abs450
same,P1F12-ZIKV inhibition assay (Abs450),[18],0.03 Abs450
same,P1F12-ZIKV inhibition assay (Abs450),[19],0.36 Abs450
same,P1F12-ZIKV inhibition assay (Abs450),[20],0.18 Abs450
same,P1F12-ZIKV inhibition assay (Abs450),[21],0.323 Abs450
same,P1F12-ZIKV inhibition assay (Abs450),[22],0.32 Abs450
same,P1F12-ZIKV inhibition assay (Abs450),[23],0.315 Abs450
same,P1F12-ZIKV inhibition assay (Abs450),[24],0.323 Abs450
same,P1F12-ZIKV inhibition assay (Abs450),[25],0.28 Abs450
same,P1F12-ZIKV inhibition assay (Abs450),[26],0.25 Abs450
same,P1F12-ZIKV inhibition assay (Abs450),[27],0.15 Abs450
same,P1F12-ZIKV inhibition assay (Abs450),[28],0.04 Abs450
same,P1F12-ZIKV inhibition assay (Abs450),[29],0.03 Abs450
same,P1F12-ZIKV inhibition assay (Abs450),[30],0.319 Abs450
same,P1F12-ZIKV inhibition assay (Abs450),[31],0.323 Abs450
same,P1F12-ZIKV inhibition assay (Abs450),[32],0.03 Abs450
same,P1F12-ZIKV inhibition assay (Abs450),[33],0.344 Abs450
same,P1F12-ZIKV inhibition assay (Abs450),[34],0.395 Abs450
same,P1F12-ZIKV inhibition assay (Abs450),[35],0.22 Abs450
same,P1F12-ZIKV inhibition assay (Abs450),[36],0.57 Abs450
same,P1F12-ZIKV inhibition assay (Abs450),[37],0.246 Abs450
same,ZIKV binding Abs 450 nm,[38],0.17 Abs 450 nm
same,P1F12-ZIKV inhibition assay (Abs450),[39],0.316 Abs450
same,P1F12-ZIKV inhibition assay (Abs450),[40],0.303 Abs450
same,P1F12-ZIKV inhibition assay (Abs450),[41],0.04 Abs450
same,P1F12-ZIKV inhibition assay (Abs450),[42],0.389 Abs450
same,"% of Zika virus Neutralized (Vero infectivity assay), antibody at 1 µg/ml",[43],82.3%
same,Neut50,[43],2 µg/mL
same,PRNT50 (plaque reduction neutralization test),[43],2 µg/mL
same,P1F12-ZIKV inhibition assay (Abs450),[44],0.29 Abs450
same,P1F12-ZIKV inhibition assay (Abs450),[45],0.405 Abs450
same,P1F12-ZIKV inhibition assay (Abs450),[46],0.406 Abs450
same,P1F12-ZIKV inhibition assay (Abs450),[47],0.04 Abs450
same,P1F12-ZIKV inhibition assay (Abs450),[48],0.29 Abs450
